The values below come from the supplement of paper PMC7877785.

± gives the uncertainty stated by the source.

The data set can be described thus: self-splicing fitness, log relative to wild type (ln ratio); higher = more splicing; Tetrahymena group I intron in knt gene, E. coli kanamycin selection, DiMSum; sequences stand for … in CUCUCU…GGAGGGAAAAGUUAUCAGGCAUGCACCUGGUAGCUAGUCUUUAAACCAAUAGAUUGCAUCGGUUUAAAAGGCAAGACCGUCAAAUUGCGGGAAAGGGGUCAACAGCCGUUCAGUACCAAGUCUCAGGGGAAACUUUGAGAUGGCCUUGCAAAGGGUAUGGUAAUAAGCUGACGGACAUGGUCCUAACCACGCAGCCAAGUCCUAAGUCAACAGAUCUUCUGUUGAUAUGGAUGCAGUUCACAGACUAAAUGUCGGUCGGGGAAGAUGUAUUCUUCUCAUAAGAUAUAGUCGGACCUCUCCUUAAUGGGAGCUAGCGGAUGAAGUGAUGCAACACUGGAGCCGCUGGGAACUAAUUUGUAUGCGAAAGUAUAUUGAUUAGUUUUGGAGUACUCGUGGUCG
The gist of the method: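 Library with all eight P1ex-region intron nucleotides randomised, intron inside the knt kanamycin-resistance gene on pET-22b(+), in E. coli BL21(DE3). Cells grew overnight at 37°C or 30°C on LB agar with or without 25 μg/mL kanamycin (plus 100 μg/mL carbenicillin, 50 μM IPTG, 0.2% rhamnose), in six replicate transformations. Pooled colonies were amplicon-sequenced on Illumina HiSeq 2500. DiMSum fitness is the error-weighted combination of wild-type-normalised replicate fold changes, kanamycin versus none.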

Turning to GGUAAGCAAUAUUACGAUAA, the “self-splicing fitness (ln)” value reads like this: (30 °C) -1.43 ± 0.092; (37 °C) -0.994 ± 0.13.
For AGAUAGCAAUAUUACGCGUU, in that order: -2.34 ± 0.14 and -0.0669 ± 0.13.
CCUAAGCAAUAUUACGGAGU: the “self-splicing fitness (ln)” value was -3 ± 0.17 (30 °C) and -2.55 ± 0.17 (37 °C).
On the same counts, the results for UCGUAGCAAUAUUACGUAUA are -2.92 ± 0.31 and -1.01 ± 0.28.
For AGACAGCAAUAUUACGGGCA, in that order: -1.18 ± 0.075 and -0.503 ± 0.079.
Turning to CUUUAGCAAUAUUACGCAUC, where the note is “37 °C”, the “self-splicing fitness (ln)” value is -1.54 ± 0.43.
As to UCACAGCAAUAUUACGCCCG, the “self-splicing fitness (ln)” value by setting is: (30 °C) -0.978 ± 0.12; (37 °C) -0.555 ± 0.14.
On the same counts, the results for GCCAAGCAAUAUUACGUGAG are -1.17 ± 0.071 and -0.535 ± 0.084.
As to UUCGAGCAAUAUUACGUACG, the “self-splicing fitness (ln)” value (30 °C) was -3.15 ± 0.38.
With AGAGAGCAAUAUUACGGCCC, the “self-splicing fitness (ln)” value reads like this: (30 °C) -1.82 ± 0.28; (37 °C) -1.71 ± 0.48.
For CAGCAGCAAUAUUACGACUA, in that order: -0.351 ± 0.068 and 0.43 ± 0.081.
Regarding CGGGAGCAAUAUUACGCUUU, the “self-splicing fitness (ln)” value (37 °C) is -0.957 ± 0.27.
Turning to GCUUAGCAAUAUUACGACUA, the “self-splicing fitness (ln)” value runs as follows: (30 °C) -1.34 ± 0.22; (37 °C) -0.593 ± 0.2.
On the same counts, the results for CAGGAGCAAUAUUACGGGCU are -4.13 ± 0.39 and -2.17 ± 0.34.
For UCGUAGCAAUAUUACGUUGA, in that order: -1.59 ± 0.16 and -0.942 ± 0.14.
For UUACAGCAAUAUUACGUGGA, in that order: -1.88 ± 0.095 and -1.41 ± 0.094.
As for AUACAGCAAUAUUACGAACU, the “self-splicing fitness (ln)” value by setting is: (30 °C) -0.142 ± 0.079; (37 °C) 0.0661 ± 0.099.
For AAUGAGCAAUAUUACGUUUA, in that order: -3.81 ± 0.35 and -2.21 ± 0.22.
On to CACGAGCAAUAUUACGUUGC, for which the “self-splicing fitness (ln)” value is -3.91 ± 0.24 (30 °C) and -2.14 ± 0.21 (37 °C).
For the sequence GAUGAGCAAUAUUACGGGCU, the “self-splicing fitness (ln)” value (30 °C) is -2.22 ± 0.4.
Turning to CUAUAGCAAUAUUACGAGGU, the “self-splicing fitness (ln)” value reads like this: (30 °C) -4.07 ± 0.42; (37 °C) -3.28 ± 0.42.
On the same counts, the results for GGUAAGCAAUAUUACGUCCG are -0.859 ± 0.11 and -0.41 ± 0.15.
Consider UCGGAGCAAUAUUACGCACG, for which the “self-splicing fitness (ln)” value (30 °C) was -3.16 ± 0.34 and the “self-splicing fitness (ln)” value (37 °C) is -0.819 ± 0.16.
On the same counts, the results for CGGGAGCAAUAUUACGUCAA are -2.14 ± 0.19 and -2.79 ± 0.38.
On the same counts, the results for GAGUAGCAAUAUUACGAAUU are -2.14 ± 0.22 and -1.36 ± 0.17.
On to UGAGAGCAAUAUUACGAGCA, for which the “self-splicing fitness (ln)” value (37 °C) was 0.211 ± 0.27.
As to ACAGAGCAAUAUUACGUCCU, the “self-splicing fitness (ln)” value is -1.35 ± 0.21 (30 °C) and -0.399 ± 0.2 (37 °C).
For the sequence UUGAAGCAAUAUUACGAUAA, the “self-splicing fitness (ln)” value (30 °C) was -0.132 ± 0.23 and the “self-splicing fitness (ln)” value (37 °C) is 0.686 ± 0.36.
On the same counts, the results for CGCAAGCAAUAUUACGGCCU are -2.59 ± 0.14 and -0.135 ± 0.13.
For AGCAAGCAAUAUUACGGAUG, the “self-splicing fitness (ln)” value reads like this: (30 °C) -2.27 ± 0.14; (37 °C) -2.17 ± 0.17.
Take UUUCAGCAAUAUUACGCUCU: the “self-splicing fitness (ln)” value reads like this: (30 °C) -1.2 ± 0.093; (37 °C) -0.182 ± 0.11.
On the same counts, the results for UCACAGCAAUAUUACGCUGC are -2.78 ± 0.22 and -2.09 ± 0.23.
On to CCUUAGCAAUAUUACGCUUA, for which the “self-splicing fitness (ln)” value reads like this: (30 °C) -3.61 ± 0.34; (37 °C) -2.66 ± 0.33.
On the same counts, the results for AGCUAGCAAUAUUACGUACA are -2.25 ± 0.23 and 0.0781 ± 0.18.
On the same counts, the results for CAUCAGCAAUAUUACGUGUA are -1.18 ± 0.083 and -0.43 ± 0.079.
With GAGUAGCAAUAUUACGGUCG, the “self-splicing fitness (ln)” value reads like this: (30 °C) -1.15 ± 0.16; (37 °C) -0.697 ± 0.19.
On the same counts, the results for AGAAAGCAAUAUUACGUACG are -1.26 ± 0.12 and 0.0255 ± 0.13.
On the same counts, the results for GCCUAGCAAUAUUACGACAU are -2.109 ± 0.015 and -1.02 ± 0.033.
Take CCCGAGCAAUAUUACGACCC: the “self-splicing fitness (ln)” value (37 °C) was -0.219 ± 0.47.
